Test results from US20170052184A1.
Where a chain is given by its changes, count along the chain named.

B1: HCV 208B-408 (antibody, V domains shown)
VH: EVKLVESGGGLVQPGGSLRLSCASSGFTFTDYYMSWVRQPPGKALEWLGFIRNKAYGYTTEFSASVNGRFTISRDDSQSVPYLQMNTLRAEDSATYYCARVLYYDYGGFAYWGQGTLVTVST
VL: DIQMTQSPASLSASVGETVTITCRASGNIHTYLAWYQQKQGKSPQLLVYNANTLADGVPSRFSGSGSGTQFSLKINSLQPDDFGSYYCQHFWSAPWTFGGGTQLEIKR
B2: HCV 208B-353 (antibody, V domains shown)
VH: EVQLVESGGDLVKPGGSLKLSCAASGFTFNHYGMSWVRQPPDKRLEWVATISSGGGYTYYPDSVKGRFTISRDNAKDTLSLQMSSLRSGDTAVYYCASLYGSLFAYWGQGTLVTVSA
VL: DIVMTQSQKFMSTTVGDRVRVTCKASQNVGTAVAWYQQKPGQSPKLLIYSASNRYTGVPDRFTGSGSGTDFTLTITNMQSEDLADYFCQQYSTYPLTFGSGAKLEIKR
B3: HCV 208B-178 (antibody, V domains shown)
VH: DVKLVESGGGLVKLGGSLKLSCAASGFTFSSYYMSWVRQTPEKRLELVAAINSNGGSTYYPDTVKGRFTISRDNAKNTLYLQMSSLKSEDTALYYCARHGGLGRRDWYFDVWGAGTTVTVSS
VL: DIVLTQSPASLAVSLGQRATISCRASESVDNYGISFMHWYQQKPGQPPKLLIYRASNLESGIPARFSGSGSRTDFTLTINPVETDDVATYYCQQSNKDPFTFGSGAKLEIKR
B4: HCV 208A-126 (antibody, V domains shown)
VH: QLQQSGPVLVKPGASVMISCKTSGYTFTENAMHWVKQSHGKSLEWIGGVNPNNGDTIFNQKFKGKATLTVDKSSNTAFTELRSLPSEESTVYYCVRRGLDFFDYWGQGTSVTVSS
VL: DIVLTQSPASLAVSLGQRATISCRASQSVSTSRYSYMHWYQQKPGQPPKLLIKYASNLESGVPARFSGSGSGTDFTLNIHPVAEEDTAAYYCQHSWEFPFTFGSGTKLEIKR
B5: HCV 208A-874 (antibody, V domains shown)
VH: QVQLQQPGAELVKPGASVKLSCKASGYTLSSYWMHWVKQRPGQGLEWIGEIHPSDSYTSYNQKFKDKATLTVDKSSSTAYMQLSSLTSEDSAVYYCARGGYYRYDEFAYWGQGTLVTVSA
VL: DIVMTQSHKFMSTSIGDRVSITCKASQNVSPAVAWYQQKPGQSPKLLIYSASSRYTGVPDRFTGSGSGTAFTFTISSVQAEDLAVYFCQQHFSTPWTFGGGTMLEIKR
B6: HCV 208B-515 (antibody, V domains shown)
VH: QVQLQQPGAELVKPGASLKLSCRASGYTFTSYWIHWVKQRPGQGLEWIGEIDPSDSYTNYNQKFKGKATLTVDKSSRAAYMQLSSLTSEDSAVYYCARHYYGVFDSWGQGTKLTVSS
VL: QIVFTQYPAIMSASLGERVTMTCTASSSVTSSYLHWFQQKPGSSPKLWIYSTSNPGSGVPARFSGRGSGTSYSLSISSMEAEDAATYYCLQFHRSPWTFGGGTKLEIRR
B7: HCV 208A-692 (antibody, V domains shown)
VH: QGQMQQSGAELAKPGASVKLSCKTSGFTFSSSYISWLKQKPGQSLEWIAWIFAGTGNTNYNQKFTDKAQLTVDTSSSTAYMQLSSLTTEDSAIYYCAISGTGFTYWGQGTLVTVSA
VL: EVLMTQSPLSLPVSLGDQASISCRSSQSLEHSNGNTYLEWFLQRPGQPPKLLIYKVSSRFSGVPDRFSGSGSGTDFTLKISRVEAEDLGVYYCFQGSHVPFTFGSGTKLAIKR
B8: HCV 208B-517 (antibody, V domains shown)
VH: QVQLKQSGPGLVQPSQSLSITCTVSGFSLITHGVHWVRQSPGKGLEWLGVIWSGGSTDYNAAFISRLSISKDTSKSQVFLKMSSLQADDTAIYYCARNGGATAFDYWGQGTTLTVSS
VL: DIVMTQSPATLSVTPGDRVSLSCRASQSISDYLHWYQQKSHESPRLLIKYASQSISGIPSRFRGSGSGSHFTLSINSVEPEDVGVYYCQNGHSFPWTFGGGTKLEIKR
B9: HCV 208B-822 (antibody, V domains shown)
VH: QVQLKQSGPGLVQPSQSLSITCTVSGFSLITYGVHWVRQSPGKGLEWLGVIWGGGSTGYNAAFVSRLNITKDNSKSQVFFKMNSLQPDDTAIYYCARNGGATVFDYWGQGTTLTVSS
VL: B8 VL with S28T, R63S
B10: HCV 208B-911 (antibody, V domains shown)
VH: QVHLQQPGAELVRPGVSVKLSCKASGYTFTTYSINWMKQRPGQGLEWIGNIYPSTSHTNYNQKFRDKATMTVDKSSSTAYMQLSSPTSEDSAVYYCTINAYSMDYWGQGTSVTVSS
VL: QIVLTQSPEIMSASPGEKVTITCSASSSVSFMYWFQQKPGTSPKLWIYITSNLASGVPTRFSGSGSGTSYSLTISRMEAEDAATYYCQQRSSFPYTFGGGTKLEMKR
B11: HCV 208B-793 (antibody, V domains shown)
VH: EVKLVESGGGLVQPGGSLKLSCAASGFTFSSYAMSWVRQTPERRLEWVTYISNGGGSTYYSDTVKGRFTFSRDNAKNTLYLQMSSLKSEDTAMYYCARHGLGRTGFASWGQGTLVTVSA
VL: DIVMTQSHKFMSTSVGDRVSITCKASQDVGTAVAWYQQKPGQSPKLLIYWASTRHTGVPDRFTGSGSGTDFTLTISNVQSEDLADYFCQQYSNYLTFGAGTKLEVKR
B12: HCV 208A-210 (antibody, V domains shown)
VH: QVQLQQSGPELVKPGASMRISCKASGYTFTSYYVHWIKQRPGQGLEWIGCIYPGDVNTDYNEKFKGKATLTADKSSSTAYMQVSTLTSEDSAIYFCVLYYYGSFAYWGQGTLVTVSA
VL: EIVLTQSPAITAASLGQNVTITCRASSSVSYMHWYRQKSGTSPQLWIYEISRRASGVPARFRASGSGTSYSLTISSMEAEDAAIYYCQQWNYPLTFGAGTKLEVKR
B13: HCV 208B-826 (antibody, V domains shown)
VH: DVQLVESGGGLVQAGGSRKLSCAASGFPFSSFGMHWVRQAPEKGLEWVASISSRTSKIYYADNLKGRFTISRDNPKNTLFLQMTSLGSEDTAMYYCVRSVFGNSYWFFDVWGAGTTVTVSS
VL: DIVLTQSPATLSVTPGDRVSLSCRASQRIYNYLHWYQQKSHESPRLLTKYASQSISGIPSRFSGSGSGTDFILTINSVETEDFGMYFCQQSNSWPLTFGAGTKLELRR
B14: HCV 208B-327 (antibody, V domains shown)
VH: EVQLVESGGGLVKPGGSLKLSCAASGFTFSDSYMYWVRQTPDQRLEWVATISDGGSYTFYPDSVKGRFTISRDNAQNNLYLQMSSLKSEDTAMYYCASPHAGYFGWFAYWGRGTLVTVSA
VL: DIVMTQAAFSNPVTPGTSVSISCRSSKSLLHSNGITYLYWYLQKPGQSPQLLIYQMSKIASGVPDRFRSSGSGTDFTLRISRVEAADVGVYYCAQNLELPWTFGGGTKLEIKR
B15: HCV 208A-442 (antibody, V domains shown)
VH: DVQLQESGPGLVNPSQSLSLTCSVTGYSITSGYYWIWIRQFPGNKLEWMGYIKYDGGNNYSPSLKNRISIARDTSKNQFFLKLNSVTIEDTATYYCTRGSDSFDYWGQGTTLTVSS
VL: DIVLTQSPASLAVSLGQRAIISCKASQSVSFAGTNLMHWYQQKPGQQPKLLIYRASNLETGVPTRFSGSGSRTDFTLNIHPVEEDDAATYYCQQSREYYTFGGGTKLEIKR
B16: HCV 208A-422 (antibody, V domains shown)
VH: B15 VH with R39Q, F41S, F79C
VL: B15 VL

biological target: bovine serum albumin (bovine) (UniProt P02769); experiment: EIA, BSA control
Sequence (P02769 25-607 limits assumed): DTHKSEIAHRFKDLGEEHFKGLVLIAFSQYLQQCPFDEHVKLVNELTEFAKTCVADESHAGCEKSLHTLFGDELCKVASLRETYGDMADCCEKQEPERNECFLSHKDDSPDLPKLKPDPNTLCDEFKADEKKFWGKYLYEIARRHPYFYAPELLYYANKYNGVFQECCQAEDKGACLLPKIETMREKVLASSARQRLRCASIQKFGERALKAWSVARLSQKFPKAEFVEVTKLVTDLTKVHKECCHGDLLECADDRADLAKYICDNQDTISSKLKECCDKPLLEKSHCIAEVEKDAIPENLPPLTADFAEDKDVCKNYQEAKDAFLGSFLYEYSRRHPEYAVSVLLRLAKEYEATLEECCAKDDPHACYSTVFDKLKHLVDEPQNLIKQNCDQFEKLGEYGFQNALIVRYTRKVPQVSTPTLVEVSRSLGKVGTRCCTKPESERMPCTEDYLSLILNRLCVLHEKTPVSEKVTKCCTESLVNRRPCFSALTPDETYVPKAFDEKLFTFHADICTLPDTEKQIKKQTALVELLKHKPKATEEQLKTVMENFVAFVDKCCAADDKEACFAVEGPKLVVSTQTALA

Point of comparison: B5, Reactivity (OD 492 nm) 0.05 OD units. Against it:
- B1 — higher, 0.06 OD units
- B2 — higher, 0.07 OD units
- B3 — higher, 0.07 OD units
- B4 — higher, 0.1 OD units
- B6 — higher, 0.06 OD units
- B7 — higher, 0.06 OD units
- B8 — higher, 0.11 OD units
- B9 — the same, 0.05 OD units
- B10 — higher, 0.1 OD units
- B11 — higher, 0.13 OD units
- B12 — higher, 0.06 OD units
- B13 — higher, 0.07 OD units
- B14 — the same, 0.05 OD units
- B15 — higher, 0.06 OD units
- B16 — higher, 0.07 OD units

biological target: bovine serum albumin (BSA) (bovine) (UniProt P02769); experiment: EIA, BSA background
Sequence (P02769 25-607 limits assumed): as above

Point of comparison: B11, OD (A492) 0.42 OD. Against it:
- B1 — lower, 0.08 OD
- B2 — lower, 0.06 OD
- B3 — lower, 0.07 OD
- B4 — lower, 0.24 OD
- B5 — lower, 0.06 OD
- B6 — lower, 0.07 OD
- B7 — lower, 0.06 OD
- B8 — lower, 0.07 OD
- B9 — lower, 0.06 OD
- B10 — higher, 1.17 OD
- B12 — lower, 0.06 OD
- B13 — lower, 0.08 OD
- B14 — lower, 0.08 OD
- B15 — lower, 0.06 OD
- B16 — higher, 1.1 OD

biological target: bovine serum albumin (BSA) (bovine) (UniProt P02769); experiment: EIA, BSA background; remark: another data set of the same source

Point of comparison: B5, OD (A492) 0.1 OD. Against it:
- B1 — the same, 0.1 OD
- B2 — the same, 0.1 OD
- B3 — lower, 0.08 OD
- B4 — lower, 0.07 OD
- B6 — lower, 0.08 OD
- B7 — lower, 0.09 OD
- B8 — higher, 0.12 OD
- B9 — higher, 0.11 OD
- B10 — higher, 0.17 OD
- B11 — higher, 0.2 OD
- B12 — lower, 0.08 OD
- B13 — higher, 0.41 OD
- B14 — lower, 0.09 OD
- B15 — higher, 0.14 OD
- B16 — higher, 0.11 OD

biological target: HCV Core1-169 (HCV-1) (UniProt P26664); experiment: EIA, core1-169 coated on plate

Point of comparison: B5, OD (A492) 0.45 OD. Against it:
- B16 — higher, 1.68 OD

biological target: T1, HCV bt-141-161 (Peptide 2, HCVc 141-161) (Hepatitis C virus (numbering per HCV-1)); experiment: EIA, captured mAb + biotin peptide
T1 sequence (peptide, biotin (carboxy-terminal per [p-0227]; N-terminal per [p-0050])): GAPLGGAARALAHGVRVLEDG

Point of comparison: B7, Reactivity (OD 492 nm) 0.38 OD units. Against it:
- B1 — lower, 0.2 OD units

biological target: HCV Core1-169 (HCV-1) (UniProt P26664); experiment: EIA, core1-169 captured by mAb 14-153-229

Point of comparison: B5, OD (A492) 0.18 OD. Against it:
- B16 — the same, 0.18 OD
